# Source: US20200299347A1 (Merck KGaA, published 2020)
# Columns and labels:
# [1] = target: NGF; assay: cell-based or functional assay
# [2] = target: FGFR3; assay: cell-based or functional assay
# Chain of NGF (P01138 122-241): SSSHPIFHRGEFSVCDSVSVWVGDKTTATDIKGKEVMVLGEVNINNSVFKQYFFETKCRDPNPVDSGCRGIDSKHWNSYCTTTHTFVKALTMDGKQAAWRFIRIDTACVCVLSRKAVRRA
"anti-NGF IC50 (nM), U2OS TrkA_p75 assay; construct from expiCHO-S [1]","FGF18 EC50 (nM), BaF3/FGFR3 assay; construct from expiCHO-S [2]",Binder
0.89 nM,0.02 nM,FGF18 SEED (HO110) (other) EPKSSDKTHTCPPCPAPEAAGGPSVFLFPPKPKDTLMISRTPEVTCVVVDVSHEDPEVKFNWYVDGVEVHNAKTKPREEQYNSTYRVVSVLTVLHQDWLNGKEYKCKVSNKALGAPIEKTISKAKGQPREPQVYTLPPPSEELALNELVTLTCLVKGFYPSDIAVEWLQGSQELPREKYLTWAPVLDSDGSFFLYSILRVAAEDWKKGDTFSCSVMHEALHNRFTQKSLDRSPGKEPKSSDKTHTEENVDFRIHVENQTRARDDVSRKQLRLYQLYSRTSGKHIQVLGRRISARGEDGDKYAQLLVETDTFGSQVRIKGKETEFYLCMNRKGKLVGKPDGTSKECVFIEKVLENNYTALMSAKYSGWYVGFTKKGRPRKGPKTRENQQDVHFMKRYPKGQPELQKPFKYTTVTK heavy: QVQLQESGPGLVKPSETLSLTCTVSGFSLIGYDLNWIRQPPGKGLEWIGIIWGDGTTDYNSAVKSRVTISKDTSKNQFSLKLSSVTAADTAVYYCARGGYWYATSYYFDYWGQGTLVTVSSASTKGPSVFPLAPSSKSTSGGTAALGCLVKDYFPEPVTVSWNSGALTSGVHTFPAVLQSSGLYSLSSVVTVPSSSLGTQTYICNVNHKPSNTKVDKKVEPKSCDKTHTCPPCPAPEAAGGPSVFLFPPKPKDTLMISRTPEVTCVVVDVSHEDPEVKFNWYVDGVEVHNAKTKPREEQYNSTYRVVSVLTVLHQDWLNGKEYKCKVSNKALGAPIEKTISKAKGQPREPQVYTLPPPSEELALNELVTLTCLVKGFYPSDIAVEWLQGSQELPREKYLTWAPVLDSDGSFFLYSILRVAAEDWKKGDTFSCSVMHEALHNRFTQKSLDRSPGK light: not shown
0.95 nM,0.1 nM,FGF18 SEED (HO113) (other) EPKSSDKTHTCPPCPAPEAAGGPSVFLFPPKPKDTLMISRTPEVTCVVVDVSHEDPEVKFNWYVDGVEVHNAKTKPREEQYNSTYRVVSVLTVLHQDWLNGKEYKCKVSNKALGAPIEKTISKAKGQPREPQVYTLPPPSEELALNELVTLTCLVKGFYPSDIAVEWLQGSQELPREKYLTWAPVLDSDGSFFLYSILRVAAEDWKKGDTFSCSVMHEALHNRFTQKSLDRSPGKGGGGSEPKSSDKTHTGGGGSEENVDFRIHVENQTRARDDVSRKQLRLYQLYSRTSGKHIQVLGRRISARGEDGDKYAQLLVETDTFGSQVRIKGKETEFYLCMNRKGKLVGKPDGTSKECVFIEKVLENNYTALMSAKYSGWYVGFTKKGRPRKGPKTRENQQDVHFMKRYPKGQPELQKPFKYTTVTKRSRRIRPTHPA heavy: QVQLQESGPGLVKPSETLSLTCTVSGFSLIGYDLNWIRQPPGKGLEWIGIIWGDGTTDYNSAVKSRVTISKDTSKNQFSLKLSSVTAADTAVYYCARGGYWYATSYYFDYWGQGTLVTVSSASTKGPSVFPLAPSSKSTSGGTAALGCLVKDYFPEPVTVSWNSGALTSGVHTFPAVLQSSGLYSLSSVVTVPSSSLGTQTYICNVNHKPSNTKVDKKVEPKSCDKTHTCPPCPAPEAAGGPSVFLFPPKPKDTLMISRTPEVTCVVVDVSHEDPEVKFNWYVDGVEVHNAKTKPREEQYNSTYRVVSVLTVLHQDWLNGKEYKCKVSNKALGAPIEKTISKAKGQPREPQVYTLPPPSEELALNELVTLTCLVKGFYPSDIAVEWLQGSQELPREKYLTWAPVLDSDGSFFLYSILRVAAEDWKKGDTFSCSVMHEALHNRFTQKSLDRSPGK light: not shown
0.29 nM,0.14 nM,FGF18 SEED fasinumab (SEED-A) (other) EENVDFRIHVENQTRARDDVSRKQLRLYQLYSRTSGKHIQVLGRRISARGEDGDKYAQLLVETDTFGSQVRIKGKETEFYLCMNRKGKLVGKPDGTSKECVFIEKVLENNYTALMSAKYSGWYVGFTKKGRPRKGPKTRENQQDVHFMKRYPKGQPELQKPFKYTTVTKGGGGSGGGGSDKTHTCPPCPAPEAAGGPSVFLFPPKPKDTLMISRTPEVTCVVVDVSHEDPEVKFNWYVDGVEVHNAKTKPREEQYNSTYRVVSVLTVLHQDWLNGKEYKCKVSNKALPAPIEKTISKAKGQPFRPEVHLLPPSREEMTKNQVSLTCLARGFYPKDIAVEWESNGQPENNYKTTPSRQEPSQGTTTFAVTSKLTVDKSRWQQGNVFSCSVMHEALHNHYTQKTISLSPGK heavy: QVQLVQSGAEVKKPGASVKVSCKVSGFTLTELSIHWVRQAPGKGLEWMGGFDPEDGETIYAQKFQGRVTMTEDTSTDTAYMELTSLRSEDTAVYYCSTIFGVVTNFDNWGQGTLVTVSSASTKGPSVFPLAPSSKSTSGGTAALGCLVKDYFPEPVTVSWNSGALTSGVHTFPAVLQSSGLYSLSSVVTVPSSSLGTQTYICNVNHKPSNTKVDKKVEPKSCDKTHTCPPCPAPEAAGGPSVFLFPPKPKDTLMISRTPEVTCVVVDVSHEDPEVKFNWYVDGVEVHNAKTKPREEQYNSTYRVVSVLTVLHQDWLNGKEYKCKVSNKALPAPIEKTISKAKGQPREPQVYTLPPPSEELALNELVTLTCLVKGFYPSDIAVEWLQGSQELPREKYLTWAPVLDSDGSFFLYSILRVAAEDWKKGDTFSCSVMHEALHNRFTQKSLDRSPGK light: DIQMTQSPSSLSASAGDRVTITCRASQAIRNDLGWYQQKPGKAPKRLIYAAFNLQSGVPSRFSGSGSGTEFTLTISSLQPEDLASYYCQQYNRYPWTFGQGTKVEIKRTVAAPSVFIFPPSDEQLKSGTASVVCLLNNFYPREAKVQWKVDNALQSGNSQESVTEQDSKDSTYSLSSTLTLSKADYEKHKVYACEVTHQGLSSPVTKSFNRGEC
0.25 nM,0.06 nM,FGF18 SEED fulranumab (SEED-B) (other) EENVDFRIHVENQTRARDDVSRKQLRLYQLYSRTSGKHIQVLGRRISARGEDGDKYAQLLVETDTFGSQVRIKGKETEFYLCMNRKGKLVGKPDGTSKECVFIEKVLENNYTALMSAKYSGWYVGFTKKGRPRKGPKTRENQQDVHFMKRYPKGQPELQKPFKYTTVTKGGGGSGGGGSDKTHTCPPCPAPEAAGGPSVFLFPPKPKDTLMISRTPEVTCVVVDVSHEDPEVKFNWYVDGVEVHNAKTKPREEQYNSTYRVVSVLTVLHQDWLNGKEYKCKVSNKALPAPIEKTISKAKGQPFRPEVHLLPPSREEMTKNQVSLTCLARGFYPKDIAVEWESNGQPENNYKTTPSRQEPSQGTTTFAVTSKLTVDKSRWQQGNVFSCSVMHEALHNHYTQKTISLSPGK heavy: EVQLVESGGGLVQPGGSLRLSCAASGFTLRSYSMNWVRQAPGKGLEWVSYISRSSHTIFYADSVKGRFTISRDNAKNSLYLQMDSLRDEDTAMYYCARVYSSGWHVSDYFDYWGQGILVTVSSASTKGPSVFPLAPSSKSTSGGTAALGCLVKDYFPEPVTVSWNSGALTSGVHTFPAVLQSSGLYSLSSVVTVPSSSLGTQTYICNVNHKPSNTKVDKKVEPKSCDKTHTCPPCPAPEAAGGPSVFLFPPKPKDTLMISRTPEVTCVVVDVSHEDPEVKFNWYVDGVEVHNAKTKPREEQYNSTYRVVSVLTVLHQDWLNGKEYKCKVSNKALPAPIEKTISKAKGQPREPQVYTLPPPSEELALNELVTLTCLVKGFYPSDIAVEWLQGSQELPREKYLTWAPVLDSDGSFFLYSILRVAAEDWKKGDTFSCSVMHEALHNRFTQKSLDRSPGK light: not shown
0.98 nM,0.05 nM,FGF18 SEED (HOF3) (other) light: not shown heavy: QVQLQESGPGLVKPSETLSLTCTVSGFSLIGYDLNWIRQPPGKGLEWIGIIWGDGTTDYNSAVKSRVTISKDTSKNQFSLKLSSVTAADTAVYYCARGGYWYATSYYFDYWGQGTLVTVSSASTKGPSVFPLAPSSKSTSGGTAALGCLVKDYFPEPVTVSWNSGALTSGVHTFPAVLQSSGLYSLSSVVTVPSSSLGTQTYICNVNHKPSNTKVDKKVEPKSC
0.89 nM,0.07 nM,FGF18 SEED (HO124) (other) EENVDFRIHVENQTRARDDVSRKQLRLYQLYSRTSGKHIQVLGRRISARGEDGDKYAQLLVETDTFGSQVRIKGKETEFYLCMNRKGKLVGKPDGTSKECVFIEKVLENNYTALMSAKYSGWYVGFTKKGRPRKGPKTRENQQDVHFMKRYPKGQPELQKPFKYTTVTKGGSGGSGSGSEPKSSDKTHTCPPCPAPEAAGGPSVFLFPPKPKDTLMISRTPEVTCVVVDVSHEDPEVKFNWYVDGVEVHNAKTKPREEQYNSTYRVVSVLTVLHQDWLNGKEYKCKVSNKALGAPIEKTISKAKGQPREPQVYTLPPPSEELALNELVTLTCLVKGFYPSDIAVEWLQGSQELPREKYLTWAPVLDSDGSFFLYSILRVAAEDWKKGDTFSCSVMHEALHNRFTQKSLDRSPGK heavy: QVQLQESGPGLVKPSETLSLTCTVSGFSLIGYDLNWIRQPPGKGLEWIGIIWGDGTTDYNSAVKSRVTISKDTSKNQFSLKLSSVTAADTAVYYCARGGYWYATSYYFDYWGQGTLVTVSSASTKGPSVFPLAPSSKSTSGGTAALGCLVKDYFPEPVTVSWNSGALTSGVHTFPAVLQSSGLYSLSSVVTVPSSSLGTQTYICNVNHKPSNTKVDKKVEPKSCDKTHTCPPCPAPEAAGGPSVFLFPPKPKDTLMISRTPEVTCVVVDVSHEDPEVKFNWYVDGVEVHNAKTKPREEQYNSTYRVVSVLTVLHQDWLNGKEYKCKVSNKALGAPIEKTISKAKGQPFRPEVHLLPPSREEMTKNQVSLTCLARGFYPKDIAVEWESNGQPENNYKTTPSRQEPSQGTTTFAVTSKLTVDKSRWQQGNVFSCSVMHEALHNHYTQKTISLSPGK light: not shown
0.88 nM,0.02 nM,FGF18 SEED (HO114) (other) heavy: QVQLQESGPGLVKPSETLSLTCTVSGFSLIGYDLNWIRQPPGKGLEWIGIIWGDGTTDYNSAVKSRVTISKDTSKNQFSLKLSSVTAADTAVYYCARGGYWYATSYYFDYWGQGTLVTVSSASTKGPSVFPLAPSSKSTSGGTAALGCLVKDYFPEPVTVSWNSGALTSGVHTFPAVLQSSGLYSLSSVVTVPSSSLGTQTYICNVNHKPSNTKVDKKVEPKSCDKTHTCPPCPAPEAAGGPSVFLFPPKPKDTLMISRTPEVTCVVVDVSHEDPEVKFNWYVDGVEVHNAKTKPREEQYNSTYRVVSVLTVLHQDWLNGKEYKCKVSNKALGAPIEKTISKAKGQPFRPEVHLLPPSREEMTKNQVSLTCLARGFYPKDIAVEWESNGQPENNYKTTPSRQEPSQGTTTFAVTSKLTVDKSRWQQGNVFSCSVMHEALHNHYTQKTISLSPGK EPKSSDKTHTCPPCPAPEAAGGPSVFLFPPKPKDTLMISRTPEVTCVVVDVSHEDPEVKFNWYVDGVEVHNAKTKPREEQYNSTYRVVSVLTVLHQDWLNGKEYKCKVSNKALGAPIEKTISKAKGQPREPQVYTLPPPSEELALNELVTLTCLVKGFYPSDIAVEWLQGSQELPREKYLTWAPVLDSDGSFFLYSILRVAAEDWKKGDTFSCSVMHEALHNRFTQKSLDRSPGK light: not shown
